In patent publication US20040018971A1 (published 2004):

Tests used:
HLA-A*1101 = HLA-A*1101 (human); experiment: inhibition of 125I-labelled probe peptide binding to purified HLA-A*1101, gel filtration
HLA-A*0101 = target: T1, HLA-A*0101 (human); experiment: competition with 125I-labelled probe peptide for purified HLA-A*0101, gel filtration; relative to standard peptide
T1 construct: also called HLA-A1

HLA-DR3 (DRB1*0301) = target: T2, HLA-DR3 (DRB1*0301) (human); experiment: competition binding assay, purified HLA, 125I-labelled probe peptide, gel filtration
T2 construct: purified HLA class II molecule

Binder | relative binding ratio (IC50 of standard peptide / IC50 of test peptide) (HLA-A*0101) | relative binding ratio (HLA-DR3 (DRB1*0301)) | further results
ESMPNPEGR [HER2/neu peptide, position 280, 9 amino acids] |  |  | relative binding ratio (IC50 of standard peptide / IC50 of test peptide) (HLA-A*1101): -0.0002 relative binding ratio
FGASCVTACPY [HER2/neu peptide, position 291, 11 amino acids] | 0.01 relative binding ratio |  | 
SLAFLPESFDGDPAS (also called Her2/neu.373) [HER2/neu peptide SLAFLPESFDGDPAS (position 373)] |  | -0.0027 ratio to standard peptide | 
PSGVKPDLSY [HER2/neu peptide, position 601, 10 amino acids] | 0.001 relative binding ratio |  | 
YNYLSTDVGSCTLVC (also called Her2/neu.301) [HER2/neu peptide YNYLSTDVGSCTLVC (position 301)] |  | 0.0059 ratio to standard peptide | 
NKEILDEAY [HER2/neu peptide, position 764, 9 amino acids] | 0.0017 relative binding ratio |  | 
PTAENPEY [HER2/neu peptide, position 1241, 8 amino acids] | 0.003 relative binding ratio |  | 
LEEITGYLY [HER2/neu peptide, position 403, 9 amino acids] | 0.0057 relative binding ratio |  | 
GDLVDAEEYLVPQQG (also called Her2/neu.1015) [HER2/neu peptide GDLVDAEEYLVPQQG (position 1015)] |  | 0.025 ratio to standard peptide | 
TAPLQPEQLQVFETL (also called Her2/neu.389) [HER2/neu peptide TAPLQPEQLQVFETL (position 389)] |  | 0.0023 ratio to standard peptide | 
YRSLLEDDDMGDLVD (also called Her2/neu.1005) [HER2/neu peptide YRSLLEDDDMGDLVD (position 1005)] |  | 0.063 ratio to standard peptide | 
VHTVPWDQLFRNPHQ (also called Her2/neu.477) [HER2/neu peptide VHTVPWDQLFRNPHQ (position 477)] |  | 0.022 ratio to standard peptide | 
KGPLPTDCCHEQCAA (also called Her2/neu.228) [HER2/neu peptide KGPLPTDCCHEQCAA (position 228)] |  | -0.0027 ratio to standard peptide | 
GGAVENPEY [HER2/neu peptide, position 1188, 9 amino acids] |  |  | relative binding ratio (IC50 of standard peptide / IC50 of test peptide) (HLA-A*1101): 0.0001 relative binding ratio
TVPLPSETDGYVAPL (also called Her2/neu.1117) [HER2/neu peptide TVPLPSETDGYVAPL (position 1117)] |  | -0.0025 ratio to standard peptide | 
LVTYNTDTFESMPNP (also called Her2/neu.271) [HER2/neu peptide LVTYNTDTFESMPNP (position 271)] |  | -0.0027 ratio to standard peptide | 

Binder | relative binding ratio (IC50 of standard peptide / IC50 of test peptide) (HLA-A*0101) | relative binding ratio (HLA-DR3 (DRB1*0301)) | further results
AIKVLRENTSPKANK (also called Her2/neu.751) [HER2/neu peptide AIKVLRENTSPKANK (position 751)] |  | 0.0075 ratio to standard peptide | 
DTILWKDIFHKNNQL (also called Her2/neu.165) [HER2/neu peptide DTILWKDIFHKNNQL (position 165)] |  | -0.0027 ratio to standard peptide | 
KCSKPCARVCY [HER2/neu peptide, position 333, 11 amino acids] | -0.0017 relative binding ratio |  | 
DLTLGLEPSEEEAPR (also called Her2/neu.1058) [HER2/neu peptide DLTLGLEPSEEEAPR (position 1058)] |  | -0.0025 ratio to standard peptide | 
FSPAFDNLY [HER2/neu peptide, position 1213, 9 amino acids] |  |  | relative binding ratio (IC50 of standard peptide / IC50 of test peptide) (HLA-A*1101): 0.0002 relative binding ratio
SMPNPEGRY [HER2/neu peptide, position 281, 9 amino acids] | 0.0028 relative binding ratio |  | 
VTCFGPEADQCVACA (also called Her2/neu.574) [HER2/neu peptide VTCFGPEADQCVACA (position 574)] |  | -0.0027 ratio to standard peptide | 
MTFGAKPY [HER2/neu peptide, position 916, 8 amino acids] | -0.0021 relative binding ratio |  | 
SLSFLQDIQEVQGYV (also called Her2/neu.70) [HER2/neu peptide SLSFLQDIQEVQGYV (position 70)] |  | 0.052 ratio to standard peptide | 
GASCVTACPY [HER2/neu peptide, position 292, 10 amino acids, listing 1 of 2 here] |  |  | relative binding ratio (IC50 of standard peptide / IC50 of test peptide) (HLA-A*1101): 0.0001 relative binding ratio
HQSDVWSY [HER2/neu peptide, position 901, 8 amino acids] | -0.0021 relative binding ratio |  | 
NQEVTAEDGTQRCEK (also called Her2/neu.319) [HER2/neu peptide NQEVTAEDGTQRCEK (position 319)] |  | -0.0027 ratio to standard peptide | 
ELHCPALVTY [HER2/neu peptide, position 265, 10 amino acids] |  |  | relative binding ratio (IC50 of standard peptide / IC50 of test peptide) (HLA-A*1101): 0.0002 relative binding ratio
MRRLLQETELVEPLT (also called Her2/neu.687) [HER2/neu peptide MRRLLQETELVEPLT (position 687)] |  | -0.0027 ratio to standard peptide | 
DNLYYWDQDPPERGA (also called Her2/neu.1218) [HER2/neu peptide DNLYYWDQDPPERGA (position 1218)] |  | -0.0025 ratio to standard peptide | 
GASCVTACPY [HER2/neu peptide, position 292, 10 amino acids, listing 2 of 2 here] | 0.0012 relative binding ratio |  | 
